Assay results: patent publication US20110262439A1 (Amgen, published 2011)

T1: mutated murine c-MET antigen with human membrane-distal epitopes (extracellular domains fused to a truncated … (murine/human chimera))
T1 construct: also called cMET-8
T1 chain: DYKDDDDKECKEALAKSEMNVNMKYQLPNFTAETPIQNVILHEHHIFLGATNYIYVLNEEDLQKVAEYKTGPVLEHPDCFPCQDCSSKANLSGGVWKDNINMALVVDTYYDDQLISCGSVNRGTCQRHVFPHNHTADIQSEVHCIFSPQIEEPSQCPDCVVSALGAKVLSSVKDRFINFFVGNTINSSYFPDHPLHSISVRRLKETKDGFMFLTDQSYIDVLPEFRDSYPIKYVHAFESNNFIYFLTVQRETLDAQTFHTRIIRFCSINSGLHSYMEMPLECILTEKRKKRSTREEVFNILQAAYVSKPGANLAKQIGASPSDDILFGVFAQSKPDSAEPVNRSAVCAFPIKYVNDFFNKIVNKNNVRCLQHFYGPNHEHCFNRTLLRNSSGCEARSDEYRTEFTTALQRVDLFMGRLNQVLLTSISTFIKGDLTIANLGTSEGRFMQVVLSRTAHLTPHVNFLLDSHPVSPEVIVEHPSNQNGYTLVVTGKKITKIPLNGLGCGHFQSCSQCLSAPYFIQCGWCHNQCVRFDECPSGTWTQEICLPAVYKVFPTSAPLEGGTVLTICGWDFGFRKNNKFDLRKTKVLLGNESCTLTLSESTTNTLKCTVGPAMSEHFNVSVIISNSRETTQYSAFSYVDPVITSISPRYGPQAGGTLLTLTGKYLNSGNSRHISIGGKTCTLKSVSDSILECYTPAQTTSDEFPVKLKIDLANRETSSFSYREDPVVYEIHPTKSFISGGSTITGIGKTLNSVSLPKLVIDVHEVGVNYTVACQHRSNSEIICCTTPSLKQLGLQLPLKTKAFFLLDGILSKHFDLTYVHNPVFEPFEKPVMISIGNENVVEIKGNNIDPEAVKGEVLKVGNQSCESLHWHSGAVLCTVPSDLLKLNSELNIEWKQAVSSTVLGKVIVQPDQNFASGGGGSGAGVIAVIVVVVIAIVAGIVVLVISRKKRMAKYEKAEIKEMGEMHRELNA

T2: mutated human c-MET antigen with murine membrane-distal epitopes (extracellular domains fused to a truncated … (human/murine chimera))
T2 construct: also called cMET-10
T2 chain: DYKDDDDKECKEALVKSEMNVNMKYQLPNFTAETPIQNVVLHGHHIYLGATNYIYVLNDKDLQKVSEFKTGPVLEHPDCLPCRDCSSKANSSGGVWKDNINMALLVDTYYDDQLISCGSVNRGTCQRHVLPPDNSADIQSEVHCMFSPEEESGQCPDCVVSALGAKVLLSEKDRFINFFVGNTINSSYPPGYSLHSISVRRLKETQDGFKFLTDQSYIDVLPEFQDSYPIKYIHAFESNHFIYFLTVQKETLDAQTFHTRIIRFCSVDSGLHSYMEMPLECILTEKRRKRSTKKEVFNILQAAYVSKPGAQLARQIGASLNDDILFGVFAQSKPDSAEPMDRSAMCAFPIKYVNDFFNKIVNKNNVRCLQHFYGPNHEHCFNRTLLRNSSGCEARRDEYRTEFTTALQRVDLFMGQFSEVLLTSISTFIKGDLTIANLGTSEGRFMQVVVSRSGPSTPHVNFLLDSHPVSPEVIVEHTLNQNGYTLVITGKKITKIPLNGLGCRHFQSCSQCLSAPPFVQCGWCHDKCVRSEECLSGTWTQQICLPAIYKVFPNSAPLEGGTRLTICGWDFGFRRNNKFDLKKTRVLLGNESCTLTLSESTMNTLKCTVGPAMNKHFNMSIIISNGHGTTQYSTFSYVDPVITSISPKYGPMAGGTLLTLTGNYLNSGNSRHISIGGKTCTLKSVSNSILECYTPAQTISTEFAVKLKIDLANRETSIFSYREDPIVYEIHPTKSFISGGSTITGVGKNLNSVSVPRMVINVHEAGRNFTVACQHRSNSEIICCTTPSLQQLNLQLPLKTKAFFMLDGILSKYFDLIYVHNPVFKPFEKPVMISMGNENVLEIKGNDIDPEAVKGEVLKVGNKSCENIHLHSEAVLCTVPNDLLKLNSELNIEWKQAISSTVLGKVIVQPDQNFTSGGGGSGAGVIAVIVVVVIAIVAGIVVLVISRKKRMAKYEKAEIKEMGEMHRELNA

B1: ME75H6HL (scFv)
scFv: EVQLLEQSGAELVRPGTSVKMSCKAAGYTFTKYWIGWVKQRPGHGLEWIGDIHPGGGYANYNEKFKGKATLTADTSSSTAYMQLSRLTSDDSAIYYCARSGYDYGSSYDYHGMDFWGQGTTVTVSSGGGGSGGGGSGGGGSELQMTQSPASLSASVGEPVTFTCRASENIYSYLAWYQQKQGKSPQLLIYGATNLADGMSSRFSGSGSGRQYSLKISSLHPDDVATYYCQNVLSTPYTFGGGTKLEIKTGDYKDDDDKHHHHHH
notes: murine anti-c-MET scFv; E. coli periplasmic preparation
B2: ME06F2HL (scFv)
scFv: EVQLLEQSGAELMKPGASVKISCKATGYTFSNYWIGWVKQRPGHGLEWIGDIYPGGSYTNYNEKFKGKVTLTADTSSRTAYMQLSSLTFEDSAIYYCARSGYDYASDYDYHGMDYWGQGTTVTVSSGGGGSGGGGSGGGGSELVLTQSPSSMSASLGDRITITCQATQDIVKNLNWYQQKPGKPPSFLIYYATELAEGVPSRFSGSGSGSDYSLTISNLESEDFADYYCLQFYEFPYTFGGGTKLEIKTGDYKDDDDKHHHHHH
notes: as for B1
B3: ME99B1HL (scFv)
scFv: EVQLLEQSGAELVRPGTSVKISCKATGYTFSNYWISWVKYRPGHGLEWIGDIYPGGSYTNYNEKFKGKVTLTADTSSRTAYMQLSGLTFEDSAIYYCARSGYDYGSDYDYHGMDYWGQGTTVTVSSGGGGSGGGGSGGGGSELQMTQSPASLSASVGETVTITCRASENIYSNLAWYQQKQGKSPQLLVYAATNLADGVPSRFSGSRSGSDYSLTISSLESEDFVDYYCLQYASYPYTFGGGTKLEIKTGDYKDDDDKHHHHHH
notes: as for B1
B4: ME06B7HL (scFv)
scFv: EVQLLEQSGAELVRPGTSVKISCKATGYTFTTYWLGWVKQRPGHGLEWIGEIHPGGGYTNYNEKFKGKATLTADTSSSTAYMQLSRLTSDDSAIYYCARSGYDYGSSYDYYGMDYWGQGTTVTVSSGGGGSGGGGSGGGGSELVMTQSPSSLSASLGERVSLTCRASQDIGSSLNWLQQEPDGTIKRLIYATSSLDSGVPKRFSGSRSGSDYSLTISSLESEDFVDYYCLQYASSPYTFGGGTKLEIKTGDYKDDDDKHHHHHH
notes: as for B1
B5: ME05F6HL (scFv)
scFv: EVQLLEQSGAEVVRPGTSVKMSCKAAGYTFTKYWIGWVKQRPGHGLEWIGDIHPGGGFANYNEKFKGKATLTADTSSSTAYMQLSRLTSDDSAIYYCARSGYDYGSSYDYHGMDYWGQGTTVTVSSGGGGSGGGGSGGGGSELVMTQSPSSLSASLGERVSLTCRASQEISGYLSWLQQKPDGTIKRLIYAASTLDSGVPKRFSGSRSGSDYSLTISSLESEDFADYYCLQYASYPPTFGGGTKLEIKTGDYKDDDDKHHHHHH
notes: as for B1
B6: ME06D1HL (scFv)
scFv: EVQLLEQSGAEVVRPGTSVKMSCKAAGYTFTKYWIGWVKQRPGHGLEWIGDIHPGGGFANYNEKFKGKATLTADTSSSTAYMQLSRLTSDDSAIYYCARSGYDYGSSYDYHGMDYWGQGTTVTVSSGGGGSGGGGSGGGGSELVMTQSPSSLTVTAGEKVTMSCKSSQSLLNSGNQKNYLAWYQQKPGQPPKLLIYGASTRESGVPDRFTGSGSGTDFTLTISSVQAEDLADYFCQQHYSTPYTFGGGTKLEIKTGDYKDDDDKHHHHHH
notes: as for B1
B7: ME06D2HL (scFv)
scFv: EVQLLEQSGADLVRPGTSVKLSCKAAGYTFSRYWISWIRQRPGHGLEWIGEIYPGGGYGNYNENFKDKVTLTADTSSSTAYMQLSSLTSEDSAIYYCARSGYDYGSKYDYYGLDYWGQGTTVTVSSGGGGSGGGGSGGGGSELVMTQSPSSMYASLGERVTITCKASQDINSYLSWFQQKPGKSPKTLIYRANRLVDGVPSRFSGSGSGQDYSLTISSLEYEDMGIYYCLQYDAFPPTFGAGTKLEIKTGDYKDDDDKHHHHHH
notes: as for B1
B8: ME06E10HL (scFv)
scFv: EVQLLEQSGADLVRPGTSVKLSCKAAGYTFSRYWISWIRQRPGHGLEWIGEIYPGGGYGNYNENFKDKVTLTADTSSSTAYMQLSSLTSEDSAIYYCARSGYDYGSKYDYYGLDYWGQGTTVTVSSGGGGSGGGGSGGGGSELVMTQSPSSLSASLGERVSLTCRASQEISGYLSWLQQKPDGTIKRLIYAASTLDSGVPKRFSGSRSGSDYSLTISSLESEDFADYYCLQYASSPYTFGGGTKLEIKTGDYKDDDDKHHHHHH
notes: as for B1
B9: ME06C6HL (scFv)
scFv: EVQLLEQSGAELVRPGTSVKIPCKATGYTFSYYWIGWVKQRPGHGLEWIGDIYPGGGYSNYNEKFKGKATLTADTSSSTAYMQLSGLTSEDSAIYYCARSGYDYGSDYDYHGLDYWGQGTTVTVSSGGGGSGGGGSGGGGSELVLTQSPASLAVSLGQRATISCRASESVEYYGTSLMQWYQQKPGQPPKLLIYAASNVESGVPARFSGSGSGTDFSLNIHPVEEDDIAMYFCQQSRKVPYTFGGGTKLEIKTGDYKDDDDKHHHHHH
notes: as for B1
B10: ME05B7HL (scFv)
scFv: EVQLLEQSGAELVRPGTSVKISCKTTGYTFGYYWISWLKQRPGHGLEWIGDIYPGGGYTNYHEKFKGKVTLTADTSSRTAYMQLSSLTFEDSAIYYCARSGYDYGSDYDYHGMDYWGQGTTVTVSSGGGGSGGGGSGGGGSELVMTQTPSSLSASLGDRVTISCRASQGISNYLNWYQQKPDGSVKLLIYYTSRLHSGVPSRFSGSGSGTDYSLTISNLDQEDIATYFCQQGNTLPWTFGGGTKLEIKTGDYKDDDDKHHHHHH
notes: as for B1
B11: ME06C7HL (scFv)
scFv: EVQLLEQSGAEVVRPGTSVKMSCKAAGYTFTKYWIGWVKQRPGHGLEWIGDIHPGGGFANYNEKFKGKATLTADTSSSTAYMQLSRLTSDDSAIYYCARSGYDYGSSYDYHGMDYWGQGTTVTVSSGGGGSGGGGSGGGGSELQMTQSPTSLAVSLGQRATISCRASQTVYYDGNNYMNWYQHKPGQPPKLLIYATSNLESGIPARFSGSGSGTDFTLNIHPVEAEDAATYYCQQSYEDPYTFGGGTKLEIKTGDYKDDDDKHHHHHH
notes: as for B1

Assays:
[1] = target: T1, mutated murine c-MET antigen with human …; test: FACS, CHO transfectants, periplasmic preparation
[2] = target: T2, mutated human c-MET antigen with murine …; test: FACS, CHO transfectants, periplasmic preparation

Binder	binding result [1]	binding result [2]
B1	no binding	binds
B2	no binding	binds
B3	no binding	
B4	no binding	binds
B5	no binding	binds
B6	no binding	binds
B7	no binding	binds
B8	no binding	binds
B9	no binding	binds
B10	no binding	binds
B11	no binding	binds
